Test results as given in US20230212549A1, “COMPOUNDS COMPRISING A […] LIGAND AND USE THEREOF” (priority 2021, published 2023).
Bridge positions count the residues as written; N and C are the ends.

T1: 5-HT3 (h) (human), P46098
T1 chain: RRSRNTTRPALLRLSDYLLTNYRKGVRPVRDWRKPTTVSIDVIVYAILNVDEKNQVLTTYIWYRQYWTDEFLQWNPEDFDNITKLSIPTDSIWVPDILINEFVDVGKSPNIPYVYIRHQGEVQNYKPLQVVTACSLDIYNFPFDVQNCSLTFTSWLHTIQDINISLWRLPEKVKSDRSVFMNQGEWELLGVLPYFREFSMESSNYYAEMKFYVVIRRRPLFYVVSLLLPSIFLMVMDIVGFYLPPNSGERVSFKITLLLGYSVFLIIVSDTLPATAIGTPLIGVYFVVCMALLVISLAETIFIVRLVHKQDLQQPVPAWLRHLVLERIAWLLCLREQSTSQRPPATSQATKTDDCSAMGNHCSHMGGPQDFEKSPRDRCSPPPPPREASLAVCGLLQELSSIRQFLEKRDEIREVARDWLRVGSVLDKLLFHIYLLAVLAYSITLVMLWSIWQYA

T2: D1 (h) (human), P21728
T2 chain: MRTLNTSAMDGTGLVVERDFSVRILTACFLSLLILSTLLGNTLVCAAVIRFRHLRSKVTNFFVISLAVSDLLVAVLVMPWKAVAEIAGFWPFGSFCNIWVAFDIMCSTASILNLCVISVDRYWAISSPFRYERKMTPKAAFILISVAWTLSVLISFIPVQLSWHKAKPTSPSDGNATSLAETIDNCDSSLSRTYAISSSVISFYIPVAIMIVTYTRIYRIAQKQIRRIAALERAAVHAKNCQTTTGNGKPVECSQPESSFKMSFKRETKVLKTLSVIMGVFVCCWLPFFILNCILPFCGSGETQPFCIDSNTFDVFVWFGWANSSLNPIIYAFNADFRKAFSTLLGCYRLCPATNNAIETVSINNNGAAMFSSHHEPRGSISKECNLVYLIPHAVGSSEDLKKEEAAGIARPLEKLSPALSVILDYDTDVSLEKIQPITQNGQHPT

T3: MAO-A (Rattus norvegicus (Rat)), P21396
T3 chain: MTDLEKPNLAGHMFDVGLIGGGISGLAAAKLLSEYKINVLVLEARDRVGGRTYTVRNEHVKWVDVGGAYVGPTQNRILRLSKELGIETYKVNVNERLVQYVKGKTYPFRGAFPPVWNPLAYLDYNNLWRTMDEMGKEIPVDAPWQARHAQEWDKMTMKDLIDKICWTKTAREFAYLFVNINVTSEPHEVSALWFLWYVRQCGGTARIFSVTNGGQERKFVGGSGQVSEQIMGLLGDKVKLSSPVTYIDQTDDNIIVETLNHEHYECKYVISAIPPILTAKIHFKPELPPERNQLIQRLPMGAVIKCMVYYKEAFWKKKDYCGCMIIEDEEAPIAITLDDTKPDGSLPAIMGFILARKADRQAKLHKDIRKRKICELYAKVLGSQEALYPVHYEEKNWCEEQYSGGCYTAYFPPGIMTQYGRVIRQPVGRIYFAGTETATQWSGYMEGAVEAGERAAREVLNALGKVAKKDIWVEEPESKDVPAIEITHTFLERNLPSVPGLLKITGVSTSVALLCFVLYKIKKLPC

T4: alpha 2A (h) (human), P08913
T4 chain: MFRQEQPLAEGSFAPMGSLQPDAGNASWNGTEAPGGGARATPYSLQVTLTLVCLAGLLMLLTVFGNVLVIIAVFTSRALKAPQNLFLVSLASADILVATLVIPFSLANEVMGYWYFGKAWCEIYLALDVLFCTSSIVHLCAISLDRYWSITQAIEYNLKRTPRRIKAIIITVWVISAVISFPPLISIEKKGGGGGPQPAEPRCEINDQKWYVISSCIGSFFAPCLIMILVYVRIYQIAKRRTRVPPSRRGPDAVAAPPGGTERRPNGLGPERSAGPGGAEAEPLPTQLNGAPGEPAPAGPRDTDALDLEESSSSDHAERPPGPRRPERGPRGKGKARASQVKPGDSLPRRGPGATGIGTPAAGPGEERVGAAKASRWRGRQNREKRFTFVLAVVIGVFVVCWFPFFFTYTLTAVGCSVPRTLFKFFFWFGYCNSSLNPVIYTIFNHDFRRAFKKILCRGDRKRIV


Tests used:
Test in all cases: radioligand displacement (antagonist radioligand), 10 µM
[1] = molecular target: 5-HT transporter (h) (human), P31645; details: remark: other sources report otherwise
Sequence of 5-HT transporter (h) (human), P31645 (P31645 whole entry): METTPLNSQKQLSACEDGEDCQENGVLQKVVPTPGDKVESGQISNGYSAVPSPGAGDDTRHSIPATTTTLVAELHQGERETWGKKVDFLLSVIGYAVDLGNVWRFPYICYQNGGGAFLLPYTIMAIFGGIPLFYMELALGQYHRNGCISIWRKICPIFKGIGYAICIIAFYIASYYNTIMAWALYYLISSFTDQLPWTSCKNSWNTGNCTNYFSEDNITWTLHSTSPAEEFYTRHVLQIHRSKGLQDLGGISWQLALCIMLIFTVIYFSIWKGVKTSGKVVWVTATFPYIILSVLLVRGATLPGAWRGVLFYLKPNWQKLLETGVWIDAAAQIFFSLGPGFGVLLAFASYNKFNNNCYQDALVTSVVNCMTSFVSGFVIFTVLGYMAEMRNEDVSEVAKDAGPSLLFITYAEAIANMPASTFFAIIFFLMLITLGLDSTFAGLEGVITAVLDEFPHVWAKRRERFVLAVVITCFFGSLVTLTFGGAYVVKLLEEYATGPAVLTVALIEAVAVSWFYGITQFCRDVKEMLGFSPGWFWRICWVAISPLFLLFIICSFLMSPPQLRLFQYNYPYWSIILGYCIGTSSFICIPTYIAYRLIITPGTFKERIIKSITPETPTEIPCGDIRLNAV

[2] = molecular target: T1, 5-HT3 (h) (human), P46098; details: remark: other sources report otherwise
D1 (h) (human), P21728 = molecular target: T2, D1 (h) (human), P21728; details: remark: other sources report otherwise
H2 (h) (human), P25021 = details: remark: other sources report otherwise
Sequence of H2 (h) (human), P25021 (P25021 whole entry): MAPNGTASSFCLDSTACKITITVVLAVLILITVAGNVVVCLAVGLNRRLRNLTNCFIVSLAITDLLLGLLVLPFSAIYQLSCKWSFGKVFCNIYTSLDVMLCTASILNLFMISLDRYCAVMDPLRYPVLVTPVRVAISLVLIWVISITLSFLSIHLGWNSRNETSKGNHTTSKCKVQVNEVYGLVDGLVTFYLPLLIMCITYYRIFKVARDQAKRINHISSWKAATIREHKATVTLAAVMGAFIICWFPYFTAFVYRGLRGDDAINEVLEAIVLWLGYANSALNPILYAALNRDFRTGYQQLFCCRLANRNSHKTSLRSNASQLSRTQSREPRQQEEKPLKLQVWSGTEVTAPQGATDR

[3] = molecular target: T3, MAO-A (Rattus norvegicus (Rat)), P21396
NMDA = molecular target: NMDA
Na+ channel (site 2) = molecular target: Na+ channel (site 2)
[4] = molecular target: T4, alpha 2A (h) (human), P08913; details: remark: other sources report otherwise
[5] = molecular target: beta 2 (h) (human), P07550; details: remark: other sources report otherwise
[6] = molecular target: norepinephrine transporter (h) (human), P23975; details: remark: other sources report otherwise
Sequence of norepinephrine transporter (h) (human), P23975 (P23975 whole entry): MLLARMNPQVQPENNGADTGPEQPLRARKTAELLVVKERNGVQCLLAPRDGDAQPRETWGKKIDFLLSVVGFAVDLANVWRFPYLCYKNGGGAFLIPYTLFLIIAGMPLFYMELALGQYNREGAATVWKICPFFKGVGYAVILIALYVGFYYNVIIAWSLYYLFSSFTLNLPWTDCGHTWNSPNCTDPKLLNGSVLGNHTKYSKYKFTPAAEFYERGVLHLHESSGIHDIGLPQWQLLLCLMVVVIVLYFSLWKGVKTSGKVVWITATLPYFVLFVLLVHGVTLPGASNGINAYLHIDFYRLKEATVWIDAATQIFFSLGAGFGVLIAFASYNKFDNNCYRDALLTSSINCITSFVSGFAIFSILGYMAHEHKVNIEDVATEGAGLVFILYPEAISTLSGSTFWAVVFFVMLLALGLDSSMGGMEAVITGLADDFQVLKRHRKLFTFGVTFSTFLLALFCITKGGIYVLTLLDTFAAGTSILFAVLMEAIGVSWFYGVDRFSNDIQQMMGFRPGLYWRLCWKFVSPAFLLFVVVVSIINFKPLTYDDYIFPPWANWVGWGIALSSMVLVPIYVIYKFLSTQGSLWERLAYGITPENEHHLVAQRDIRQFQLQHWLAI

| Binder | % Inhibition of Specific Binding [1] [%] | % Inhibition of Specific Binding [2] [%] | % Inhibition of Specific Binding (D1 (h) (human), P21728) [%] | % Inhibition of Specific Binding (H2 (h) (human), P25021) [%] | % Inhibition of Specific Binding [3] [%] | % Inhibition of Specific Binding (NMDA) [%] | % Inhibition of Specific Binding (Na+ channel (site 2)) [%] | % Inhibition of Specific Binding [4] [%] | % Inhibition of Specific Binding [5] [%] | % Inhibition of Specific Binding [6] [%] |
| --- | --- | --- | --- | --- | --- | --- | --- | --- | --- | --- |
| Hex-CPPTQFC-OH (bridge 1-7; not fully specified (bridges); printed as Hex-[Cys(tMeBn(DOTA-AET))-Pro-Pro-Thr-Gln-Phe-Cys]-OH) [Hex-[Cys(tMeBn(DOTA-AET))-Pro-Pro-Thr-Gln-Phe-Cys]-OH] | -8 | 4 | 7 | -16 | -25 | 1 | 14 | 2 | 8 | -5 |
| Hex-CPPTQFCD-NH2 (bridge 1-7; not fully specified (bridges); printed as Hex-[Cys(tMeBn(DOTA-PP))-Pro-Pro-Thr-Gln-Phe-Cys]-Asp-NH2) [Hex-[Cys(tMeBn(DOTA-PP))-Pro-Pro-Thr-Gln-Phe-Cys]-Asp-NH2] | -3 | 2 | 0 | -5 | -5 | 9 | -7 | -9 | 4 | -8 |
